Measurements from article PMC5672839, “A novel peptide stapling strategy enables the retention of ring-closing amino acid side chains for the Wnt/β-catenin signalling pathway” (Chemical Science, 2017).
Starred links: 1 amine or outer side, 2 acyl side, 3 side chain; linkers in the order of their positions; H or OH if unused. Positions of bridges follow the written chain, without caps; N, C: chain ends. Non-standard residues stand in square brackets, D forms with d. Residues, ends and D or L forms follow the SMILES beside them. *: point of attachment. FITC = O=C1OC2(c3ccc(O)cc3Oc3cc(O)ccc32)c2ccc(NC(=S)*)cc21; X2 = CC(C)C[C@](CCCC=[*:3])(N[*:1])C(=O)[*:2]; X6 = NCCCC[C@](CCCC=[*:3])(N[*:1])C(=O)[*:2]; X1 = CSCC[C@](CCCC=[*:3])(N[*:1])C(=O)[*:2]; X3 = O=C([C@@](CO)(CCCC=[*:3])N[*:1])[*:2]; X5 = C=CCCC[C@@](CC(C)C)(N[*:1])C(=O)[*:2]; X4 = C=CCCC[C@@](CCSC)(N[*:1])C(=O)[*:2]; R5 = C=CCCC[C@@](C)(N)C(=O)O; S5 = C=CCCC[C@](C)(N)C(=O)O; βAla = NCCC(=O)O

Assays:
circular dichroism = details: 10 mM phosphate buffer (captions say PBS); pH 7.4; 25 °C; 50 uM
HEK 293T/17 cells = experiment: Cell permeability of FITC-labelled peptides by confocal microscopy; type: cell-based; details: FITC–β-Ala–peptide 40 μM (supplement: 10 µM), 16 h, washed with PBS twice, fixed, confocal fluorescence microscopy
From the text: (§1) Con = non-specific control. […] Scale bar: 50 μm.
We then assessed the cell permeability of the peptides by conjugating fluorescein isothiocyanate (FITC) to Axin (469–482), WNT-3a and WNT-3c (Fig. 3d). […] To explore the detailed binding mode of WNT-3a against β-catenin, we conducted a Z-dock of the WNT-3a–β-catenin complex to predict structural models of the protein–protein complexes.[27] […] Owing to an introduction of the stapling group, Met-481 is closer to the Trp-338 of β-catenin, and thus forms a stronger interaction with that residue. In addition, a stronger salt bridge between the side chain carboxyl group of Asp-474 coordinated with the amino group of β-catenin Lys-292 and a more efficient hydrogen bond between the side chain of His-476 and β-catenin Asp-299 are constructed because of a closer distance geometrically. It is conceivable that these changes enhanced the conformational stability of WNT-3a in its bound state, thereby contributing to the improved binding activity.
(§2) The CD spectra were obtained with
(§3) The measurement parameters
(§4) background subtraction. The curves were smoothed using standard parameters. In addition,
(§5) Figure S3. CD spectra of all peptides.
(§6) concentration of 50 μM. The percent helicity was calculated based on the [θ] 222 value.

α-chymotrypsin = α-chymotrypsin (Bos taurus, UniProt P00766); experiment: Proteolytic stability towards α-chymotrypsin; details: α-chymotrypsin 5 ng μL^–1 (supplement: 0.5 ng/µL) in 50 mM PBS pH 7.4 with 2 mM CaCl2, peptide 0.1 mM final, room temperature, 1 h, analytical HPLC, duplicate independent experiments
[1] = system: Wnt/β-catenin dependent transcriptional activity; experiment: Topflash-luciferase reporter, Wnt3a-induced expression; type: cell-based; details: Wnt3a conditioned medium, peptide 40 μM, 12 h; for Wnt3a-induced Topflash reporter expression, comparison in words: HEK293T cells transfected with Topflash-luciferase
From the text: We next explored the effects of these peptides on Wnt/β-catenin dependent transcriptional activity. The Topflash reporter, in which firefly luciferase is transcriptionally activated by β-catenin, was employed. […] Con = non-specific control. […] Scale bar: 50 μm.

[2] = Circular dichroism (CD) analysis, percent helicity from [θ]222; type: physicochemical; details: peptide 50 μM in phosphate buffer (10 mM, pH 7.4), 25 °C, 1 mm cuvette, calculated from [θ]222
Experimental: as §1, §2, §3, §4, §5, §6

in vitro = details: isolated enzyme chymotrypsin, pH 7.4

Row | Compound | helicity (circular dichroism) [%] | also measured
1 | C=CCCC[C@@](CCSC)(NC(=O)[C@@H](NC(=O)[C@H](CCCNC(=N)N)NC(=O)[C@](C)(CCCC=C)NC(=O)[C@@H](NC(=O)[C@H](Cc1c[nH]cn1)NC(=O)[C@H](CCC(=O)O)NC(=O)[C@H](CC(=O)O)NC(=O)[C@H](CC(C)C)NC(=O)[C@@H](NC(=O)[C@H](CO)NC(=O)[C@H](CCC(=O)O)NC(=O)[C@@H]1CCCN1C(C)=O)[C@@H](C)CC)C(C)C)C(C)C)C(=O)N[C@@H](CCCCN)C(N)=O (Ac-PESILDEHV[S5]RV[X4]K-NH2) | 49.9 | –
2 | CC[C@H](C)[C@H](NC(=O)[C@H](CO)NC(=O)[C@H](CCC(=O)O)NC(=O)[C@@H]1CCCN1C(C)=O)C(=O)N[C@@H](CC(C)C)C(=O)N[C@@H](CC(=O)O)C(=O)N[C@@H](CCC(=O)O)C(=O)N[C@@H](Cc1c[nH]cn1)C(=O)N[C@]1(C)CCCC=CCCC[C@](C)(C(=O)N[C@@H](CCCCN)C(N)=O)NC(=O)[C@H](C(C)C)NC(=O)[C@H](CCCNC(=N)N)NC(=O)[C@H](CCC(N)=O)NC1=O (Ac-PESILDEH[R5]QRV[R5]K-NH2; staple 9-13) | 35.4 | –
3 | CC[C@H](C)[C@H](NC(=O)[C@H](CO)NC(=O)[C@H](CCC(=O)O)NC(=O)[C@@H]1CCCN1C(C)=O)C(=O)N[C@@H](CC(C)C)C(=O)N[C@@H](CC(=O)O)C(=O)N[C@@H](CCC(=O)O)C(=O)N[C@@H](Cc1c[nH]cn1)C(=O)N[C@@]1(C)CCCC=CCCC[C@@](C)(C(=O)N[C@@H](CCCCN)C(N)=O)NC(=O)[C@H](C(C)C)NC(=O)[C@H](CCCNC(=N)N)NC(=O)[C@H](CCC(N)=O)NC1=O (Ac-PESILDEH[S5]QRV[S5]K-NH2; staple 9-13) | 64.7 | –
4 | CC[C@H](C)[C@H](NC(=O)[C@H](CO)NC(=O)[C@H](CCC(=O)O)NC(=O)[C@@H]1CCCN1C(C)=O)C(=O)N[C@]1(C)CCCC=CCCC[C@@](C)(C(=O)N[C@H](C(=O)N[C@@H](CCC(N)=O)C(=O)N[C@@H](CCCNC(=N)N)C(=O)N[C@H](C(=O)N[C@@H](CCSC)C(=O)N[C@@H](CCCCN)C(N)=O)C(C)C)C(C)C)NC(=O)[C@H](CCC(=O)O)NC(=O)[C@H](CC(=O)O)NC1=O (Ac-PESI[R5]DE[S5]VQRVMK-NH2; staple 5-8) | 36.8 | –
5 | C=CCCC[C@@](CC(C)C)(NC(=O)[C@@H](NC(=O)[C@H](CO)NC(=O)[C@H](CCC(=O)O)NC(=O)[C@@H]1CCCN1C(C)=O)[C@@H](C)CC)C(=O)N[C@@H](CC(=O)O)C(=O)N[C@@H](CCC(=O)O)C(=O)N[C@@H](Cc1c[nH]cn1)C(=O)N[C@](C)(CCCC=C)C(=O)N[C@@H](CCC(N)=O)C(=O)N[C@@H](CCCNC(=N)N)C(=O)N[C@H](C(=O)N[C@@H](CCSC)C(=O)N[C@@H](CCCCN)C(N)=O)C(C)C (Ac-PESI[X5]DEH[R5]QRVMK-NH2) | 21.6 | –
6 | CC[C@H](C)[C@@H]1NC(=O)[C@](C)(NC(=O)[C@H](CCC(=O)O)NC(=O)[C@@H]2CCCN2C(C)=O)CCCC=CCCC[C@@](C)(C(=O)N[C@@H](CCC(=O)O)C(=O)N[C@@H](Cc2c[nH]cn2)C(=O)N[C@H](C(=O)N[C@@H](CCC(N)=O)C(=O)N[C@@H](CCCNC(=N)N)C(=O)N[C@H](C(=O)N[C@@H](CCSC)C(=O)N[C@@H](CCCCN)C(N)=O)C(C)C)C(C)C)NC(=O)[C@H](CC(C)C)NC1=O (Ac-PE[R5]IL[S5]EHVQRVMK-NH2; staple 3-6) | 40 | –
7 | CC[C@H](C)[C@@H]1NC(=O)[C@](CO)(NC(=O)[C@H](CCC(=O)O)NC(=O)[C@@H]2CCCN2C(C)=O)CCCC=CCCC[C@](C)(C(=O)N[C@@H](Cc2c[nH]cn2)C(=O)N[C@H](C(=O)N[C@@H](CCC(N)=O)C(=O)N[C@@H](CCCNC(=N)N)C(=O)N[C@H](C(=O)N[C@@H](CCSC)C(=O)N[C@@H](CCCCN)C(N)=O)C(C)C)C(C)C)NC(=O)[C@H](CC(=O)O)NC(=O)[C@H](CC(C)C)NC1=O (Ac-PE[X3]ILD[R5]HVQRVMK-NH2; staple 3-7) | 24.8 | –
8 | CC[C@H](C)[C@@H]1NC(=O)[C@](CO)(NC(=O)[C@H](CCC(=O)O)NC(=O)[C@@H]2CCCN2C(C)=O)CCCC=CCCC[C@@](C)(C(=O)N[C@@H](CCC(=O)O)C(=O)N[C@@H](Cc2c[nH]cn2)C(=O)N[C@H](C(=O)N[C@@H](CCC(N)=O)C(=O)N[C@@H](CCCNC(=N)N)C(=O)N[C@H](C(=O)N[C@@H](CCSC)C(=O)N[C@@H](CCCCN)C(N)=O)C(C)C)C(C)C)NC(=O)[C@H](CC(C)C)NC1=O (Ac-PE[X3]IL[S5]EHVQRVMK-NH2; staple 3-6) | 51.3 | –
9 | CC[C@H](C)[C@H](NC(=O)[C@H](CO)NC(=O)[C@H](CCC(=O)O)NC(=O)[C@@H]1CCCN1C(=O)CCNC(=S)Nc1ccc2c(c1)C(=O)OC21c2ccc(O)cc2Oc2cc(O)ccc21)C(=O)N[C@@H](CC(C)C)C(=O)N[C@@H](CC(=O)O)C(=O)N[C@@H](CCC(=O)O)C(=O)N[C@@H](Cc1c[nH]cn1)C(=O)N[C@H](C(=O)N[C@@H](CCC(N)=O)C(=O)N[C@@H](CCCNC(=N)N)C(=O)N[C@H](C(=O)N[C@@H](CCSC)C(=O)N[C@@H](CCCCN)C(N)=O)C(C)C)C(C)C [FITC–β-Ala–Axin (469–482)] ({FITC-βAla}-PESILDEHVQRVMK-NH2) | – | cell permeability (HEK 293T/17 cells): also penetrated the cell membrane
10 | CC[C@H](C)[C@H](NC(=O)[C@H](CO)NC(=O)[C@H](CCC(=O)O)NC(=O)[C@@H]1CCCN1C(C)=O)C(=O)N[C@@H](CC(C)C)C(=O)N[C@@H](CC(=O)O)C(=O)N[C@@H](CCC(=O)O)C(=O)N[C@@H](Cc1c[nH]cn1)C(=O)N[C@]1(C)CCCC=CCCC[C@](CCSC)(C(=O)N[C@@H](CCCCN)C(N)=O)NC(=O)[C@H](C(C)C)NC(=O)[C@H](CCCNC(=N)N)NC(=O)[C@H](CCC(N)=O)NC1=O [WNT-3a] (Ac-PESILDEH[R5]QRV[X1]K-NH2; staple 9-13) | 42.3 | degradation by α-chymotrypsin (α-chymotrypsin): completely stable and no degradation was observed even after 1 h
11 | CC[C@H](C)[C@H](NC(=O)[C@H](CO)NC(=O)[C@H](CCC(=O)O)NC(=O)[C@@H]1CCCN1C(C)=O)C(=O)N[C@]1(CC(C)C)CCCC=CCCC[C@@](C)(C(=O)N[C@H](C(=O)N[C@@H](CCC(N)=O)C(=O)N[C@@H](CCCNC(=N)N)C(=O)N[C@H](C(=O)N[C@@H](CCSC)C(=O)N[C@@H](CCCCN)C(N)=O)C(C)C)C(C)C)NC(=O)[C@H](CCC(=O)O)NC(=O)[C@H](CC(=O)O)NC1=O [WNT-6a] (Ac-PESI[X2]DE[S5]VQRVMK-NH2; staple 5-8) | 70.9 | Wnt3a-induced Topflash reporter expression, comparison in words [1]: enhanced the Wnt3a-induced reporter expression more effectively than Axin (469–482); fold enhancement of Wnt3a-induced reporter expression ([1]; HEK293T cells, Topflash-luciferase, compared with Axin (469–482)): three-fold enhancement; α-Helicity [2]: 70.87%
12 | CC[C@H](C)[C@H](NC(=O)[C@H](CO)NC(=O)[C@H](CCC(=O)O)NC(=O)[C@@H]1CCCN1C(C)=O)C(=O)N[C@@H](CC(C)C)C(=O)N[C@@H](CC(=O)O)C(=O)N[C@@H](CCC(=O)O)C(=O)N[C@@H](Cc1c[nH]cn1)C(=O)N[C@H](C(=O)N[C@@H](CCC(N)=O)C(=O)N[C@@]1(C)CCCC=CCCC[C@](CCCCN)(C(N)=O)NC(=O)[C@H](CCSC)NC(=O)[C@H](C(C)C)NC1=O)C(C)C [WNT-8a] (Ac-PESILDEHVQ[S5]VM[X6]-NH2; staple 11-14) | – | Wnt3a-induced Topflash reporter expression, comparison in words [1]: enhanced the Wnt3a-induced reporter expression more effectively than Axin (469–482)
13 | Ac-PESILDEHVQRVMK-NH2 [Axin (469–482)] | 19.6 | half-life at 0.1 mM (in vitro): 9 min
